Here are results for four molecules from PMC8689142, “Discovery of a Positive Allosteric Modulator of Cholecystokinin Action at CCK1R in Normal and Elevated Cholesterol” (Frontiers in Endocrinology, 2021).

For test [1], the target named is T1, type 1 cholecystokinin receptor (CCK1R) (Homo sapiens, UniProt P32238).
T1 construct: gene CCKAR; CHO-CCK1R cells and membranes
T1 sequence (P32238 1-428): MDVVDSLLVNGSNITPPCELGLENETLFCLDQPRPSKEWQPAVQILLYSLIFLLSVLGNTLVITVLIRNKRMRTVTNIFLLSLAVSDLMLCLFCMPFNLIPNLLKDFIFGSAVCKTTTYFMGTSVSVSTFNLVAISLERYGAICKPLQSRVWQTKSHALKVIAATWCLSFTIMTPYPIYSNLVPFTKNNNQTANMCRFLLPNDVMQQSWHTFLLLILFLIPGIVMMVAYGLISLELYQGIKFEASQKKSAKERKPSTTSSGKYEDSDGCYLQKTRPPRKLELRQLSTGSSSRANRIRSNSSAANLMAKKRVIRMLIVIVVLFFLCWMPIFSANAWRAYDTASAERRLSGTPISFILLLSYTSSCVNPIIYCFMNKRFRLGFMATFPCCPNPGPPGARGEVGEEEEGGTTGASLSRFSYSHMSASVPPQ
Nature of the test: fluorescence polarization kinetics (slowed alexa488-CCK off-rate); calcium assay fitted with operational allosteric model. The test is classed as cell-based. (In general: Polarisation of emitted light reports the rotation of a fluorescent probe.)

In test [2] the target is human type 1 cholecystokinin receptor (CCK1R), CHO-CCK1R cell line (human) (UniProt P32238).
The target in test [3] is Cynomolgus monkey CCK1R (Cynomolgus monkey).
For test [4], the target named is T2, rat type 1 CCK receptor (rat), P30551.
T2 chain: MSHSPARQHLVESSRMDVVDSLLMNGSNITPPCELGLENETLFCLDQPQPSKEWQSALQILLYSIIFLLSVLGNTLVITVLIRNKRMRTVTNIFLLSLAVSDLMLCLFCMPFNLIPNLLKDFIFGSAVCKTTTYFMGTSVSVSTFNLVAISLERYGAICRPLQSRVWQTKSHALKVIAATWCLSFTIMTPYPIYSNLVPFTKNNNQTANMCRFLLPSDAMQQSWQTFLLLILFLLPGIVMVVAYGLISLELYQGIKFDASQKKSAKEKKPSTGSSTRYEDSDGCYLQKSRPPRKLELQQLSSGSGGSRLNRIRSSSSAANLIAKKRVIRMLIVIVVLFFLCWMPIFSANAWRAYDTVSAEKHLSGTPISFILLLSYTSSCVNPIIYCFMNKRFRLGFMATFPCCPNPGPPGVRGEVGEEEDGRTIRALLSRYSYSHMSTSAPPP

For test [5], the target named is Cynomolgus monkey CCK1R (Cynomolgus monkey). Nature of the test: radioligand binding; radioligand competition-binding assay on intact receptor-expressing cells; radioiodinated D-Tyr-Gly-[(Nle28,31)CCK-26-33] as radioligand, unlabeled CCK as competitor; duplicates, at least three independent experiments. (Loss of bound radioactivity is the signal in a displacement assay; it reports binding, not function.)

For test [6], the target named is T3, human type 1 cholecystokinin receptor (CCK1R), CHO-CCK1R cell line (human, UniProt P32238 1-428).
T3 construct: type 1 cholecystokinin receptor, human, wild type; also called human CCK1R; WT CCK1R; source: CHO-K1 cell line stably expressing the receptor (CHO-CCK1R); intact cells and membranes
T3 sequence (looked up): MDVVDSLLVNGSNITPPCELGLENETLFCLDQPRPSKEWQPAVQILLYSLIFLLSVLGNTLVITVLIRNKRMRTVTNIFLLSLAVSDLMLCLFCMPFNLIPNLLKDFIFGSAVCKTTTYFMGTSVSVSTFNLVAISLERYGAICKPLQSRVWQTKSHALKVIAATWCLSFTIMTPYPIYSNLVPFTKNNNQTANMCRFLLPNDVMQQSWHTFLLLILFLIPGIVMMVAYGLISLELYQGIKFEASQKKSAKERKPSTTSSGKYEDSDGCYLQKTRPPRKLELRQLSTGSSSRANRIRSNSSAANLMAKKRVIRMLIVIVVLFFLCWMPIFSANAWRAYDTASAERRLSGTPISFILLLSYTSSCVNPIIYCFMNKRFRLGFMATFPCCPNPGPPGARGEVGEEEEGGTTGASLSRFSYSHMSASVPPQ
Kind of test: fluorescence polarisation; alexa488-CCK (3.2 nM) added to CHO-CCK1R membranes in KRH buffer, pH 7.4, 0.2% bovine serum albumin; dissociation started with 1 µM unlabeled CCK-8; absence of Compound 1. The note with it: one partner purified.

Non-standard residues stand in square brackets, D forms with d. No end group written: not given here. Alexa 488 = Alexa Fluor 488 fluorescent dye; Nle = CCCC[C@H](N)C(=O)O

Consider `C=C[C@H]1CN2CC[C@H]1C[C@@H]2CNC(=O)Nc1cccc(C(F)(F)F)c1` [Compound 1, 3-[(1S,2R,4S,5R)-5-ethenyl-1-azabicyclo[2.2.2]octan-2-yl]methyl-1-[3-(trifluoromethyl)phenyl]urea], for which, in test [1], the Kb is 251 µM.

Take Synthetic CCK-58 (peptide): in test [2], the pEC50 for CCK, peak intracellular calcium response in CHO cells expressing human CCK1R, + 10 µM Compound 1 was 9.9 and the pEC50 for CCK, peak intracellular calcium response in CHO cells expressing human CCK1R, control stood at 9.1.

On to DYMGWMDF (modifications not checked) [Synthetic CCK-26-33 (CCK-8)], for which the pEC50 for CCK, peak intracellular calcium response in CHO cells expressing Cynomolgus monkey CCK1R, control in test [3] came to 11.2. Further, in test [4], the pEC50 for CCK, peak intracellular calcium response in CHO cells expressing rat CCK1R, + 10 µM Compound 1 was 11.9. The same molecule gave a pKi in test [5] of 8.6.

In test [6], {Alexa 488}-[dY]GDY[Nle]GW[Nle]DF (ends and bridges not checked) [alexa^488-D-Tyr-Gly-[(Nle^28,31)CCK-26-33]] displayed a koff of 0.0217 s⁻¹ and a kon of 2.33e+06 M⁻¹ s⁻¹.

As usually defined, the pKi is −log10 of the Ki, conventionally taken in molar units. In general, koff refers to the rate constant with which the complex falls apart. As usually defined, the kon is the rate constant with which the complex forms.
